Values of other authors, collected in paper PMC5753338.

Molecular target: BAIAP2L1/IRTKS SH3 (Homo sapiens) (UniProt Q9UHR4)
Chain of UniProt Q9UHR4 (Q9UHR4 336-405): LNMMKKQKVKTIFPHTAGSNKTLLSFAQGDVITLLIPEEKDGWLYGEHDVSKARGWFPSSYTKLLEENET

EspFU PxxP motifs (from UniProt P0DJ88)
Kd: 0.5 µM
